{
  "source": "patent US20210309745A1",
  "about": "(TAYU HUAXIA BIOTECH MEDICAL GROUP, published 2021)",
  "molecular_target": "hPD-L1 (antigen of the Fortebio Octet assay) (human, UniProt Q9NZQ7 19-238, limits assumed)",
  "sequence (Q9NZQ7 19-238 limits assumed)": "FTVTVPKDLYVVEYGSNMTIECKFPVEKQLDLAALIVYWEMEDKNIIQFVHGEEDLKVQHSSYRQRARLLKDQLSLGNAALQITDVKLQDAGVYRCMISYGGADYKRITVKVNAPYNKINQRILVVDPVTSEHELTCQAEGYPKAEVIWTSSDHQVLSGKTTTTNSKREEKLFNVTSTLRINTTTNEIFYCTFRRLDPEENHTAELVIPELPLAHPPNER",
  "test": "BLI, Fortebio Octet; format not stated",
  "description": "The anti-hPD-L1 scFv-hFc Wt and scFv-hFc Mt antibodies were identified by SDS Page Gel […]. […] The binding affinities of the scFv-hFc antibodies to hPD-L1, as compared to that of the parental antibody were examined by FACS and the results are shown in FIG. 7. […] The binding affinities and kinetics of the scFv-hFc antibodies (scFv-hFc Wt and scFv-hFc Mt) to hPD-L1, as compared to that of the parental antibody (anti-PD-L1 IgG1), were further analyzed using the Fortebio Octet system.",
  "data": [
    {"binder": "anti-PD-L1 IgG1 (parental antibody of Example 3) (antibody, V domains shown, IgG1; also called parental control antibody) VH: EVQLQQSGAELVKPGASVKLSCTASGFNIKDTYMYWVKQRPEQGLECIGRIDPANDNTKYDPKFQGKATITADTSSNTAYVQLASLTSEDTAVYYCARAKNLLNYFDYWGQGTTLTVSS VL: DIQMTQSPSSLSASLGERVTLSCRASQEISGYLSWLQQKPDGTIKRLIYATSTLDSGVPKRFSGSRSGSDYSLTISSLESEDFADYYCLQYAIYPLTFGAGTKLELKR", "values": [
      {"measurement": "koff", "value": "2.72e-05", "unit": "s⁻¹"}
    ]}
  ]
}
